From US20220033512A1 (University of California, published 2022)

How the values were obtained:
[1] = target: T1, human ENPP1, full length, over-expressed on HEK cells (human, UniProt P22413 1-925); assay: flow cytometry (mean fluorescence intensity) on HEK cells over-expressing full length human ENPP1
T1 construct: whole, on cells
T1 sequence (looked up): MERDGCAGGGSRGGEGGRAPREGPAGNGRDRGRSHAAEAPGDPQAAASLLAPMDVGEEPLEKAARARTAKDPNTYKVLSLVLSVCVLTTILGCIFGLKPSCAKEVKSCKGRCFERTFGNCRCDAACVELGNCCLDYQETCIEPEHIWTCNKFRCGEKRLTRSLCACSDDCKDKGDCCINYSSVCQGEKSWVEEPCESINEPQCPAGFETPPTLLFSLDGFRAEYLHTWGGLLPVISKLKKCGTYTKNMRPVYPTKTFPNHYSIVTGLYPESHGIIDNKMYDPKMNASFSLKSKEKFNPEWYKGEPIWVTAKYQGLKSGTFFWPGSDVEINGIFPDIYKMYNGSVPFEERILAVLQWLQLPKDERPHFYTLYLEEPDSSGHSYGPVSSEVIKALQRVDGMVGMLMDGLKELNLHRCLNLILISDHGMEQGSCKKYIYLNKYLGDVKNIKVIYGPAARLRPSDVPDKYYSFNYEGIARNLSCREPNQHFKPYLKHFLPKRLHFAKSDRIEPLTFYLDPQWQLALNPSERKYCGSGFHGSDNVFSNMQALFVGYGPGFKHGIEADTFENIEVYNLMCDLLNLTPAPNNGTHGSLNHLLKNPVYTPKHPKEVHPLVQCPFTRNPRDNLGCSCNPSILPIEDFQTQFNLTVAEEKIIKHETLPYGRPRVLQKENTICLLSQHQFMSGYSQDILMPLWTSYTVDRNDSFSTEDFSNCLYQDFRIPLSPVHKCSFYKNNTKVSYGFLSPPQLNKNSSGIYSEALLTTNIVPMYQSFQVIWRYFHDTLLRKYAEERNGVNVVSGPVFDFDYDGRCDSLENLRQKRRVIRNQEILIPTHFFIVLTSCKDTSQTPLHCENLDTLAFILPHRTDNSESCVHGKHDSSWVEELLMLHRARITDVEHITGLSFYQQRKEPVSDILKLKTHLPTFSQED

[2] = target: T1, human ENPP1, full length, …; assay: flow cytometry (mean fluorescence intensity) on HEK cells over-expressing full length ENPP1, varying mAb concentrations, fitted in Graph Pad Prism

EC50 (read off the curve) [1]: ~4 nM
Kd [2]: 3.52 nM
B1: 12-J-4 ENPP1 monoclonal antibody (antibody, V domains shown)
VH: EVMLVESGGGLVKPGGSLKLSCVASGFTFSSYTMSWVRQTPEKRLEWVATISGGGGNTYYPDSVKGRFTISRDNAKNTLYLQMSSLRSEDTALYYCARRHYGSSPYAMDYWGQGTSVTVSS
VL: DIQMTQTTSSLSASLGDRVTISCRASQDISNYLNWYQQKPDGTVKLLIYHKTRLHSGVPSRFSGSGSGTDYSLTISNLEQEDIATYFCQQGNMLPWTFGGGTKLEIK
notes: The antibody is a recombinant IgG1kappa made in a CHO cell line, from a hybridoma raised against human recombinant ENPP1; Heavy chain about 48 kD, light chain about 24 kD; also called ENPP1 mAb; ENPP1mAb
